{
  "source": "the supplement of paper PMC5998384",
  "key": {"HeLa Kyoto [1]": {"test_system": "HeLa Kyoto", "test": "melting temperature (median over replicates), in situ; higher = more thermally stable"}, "HeLa Kyoto [2]": {"test_system": "HeLa Kyoto", "test": "solubility change mitosis vs G1/S (difference of NP-40 vs SDS log2 ratios) (log2 ratio difference); higher = more soluble in mitosis"}, "HeLa Kyoto [3]": {"test_system": "HeLa Kyoto", "test": "solubility in G1/S (NP-40 vs SDS abundance) (log2 ratio); higher = more soluble", "details": "cell cycle stage: G1/S"}, "HeLa Kyoto [4]": {"test_system": "HeLa Kyoto", "test": "thermal stability score vs G1/S (z-score of summed log2 fold changes over temperatures); higher = more thermally stable than in G1/S"}, "[5]": {"details": "cell cycle stage: early G1 (4.5 h after nocodazole release)"}},
  "data": [
    {"substance": "USP24", "values": [
      {"measurement": "melting temperature", "setting": "HeLa Kyoto [1]; cell cycle stage: G1/S", "value": 51.4, "unit": "°C"},
      {"measurement": "melting temperature", "setting": "HeLa Kyoto [1]; cell cycle stage: mitosis", "value": 50.5, "unit": "°C"},
      {"measurement": "solubility change mitosis (log2)", "setting": "HeLa Kyoto [2]", "value": -0.155},
      {"measurement": "solubility in G1/S (log2)", "setting": "HeLa Kyoto [3]", "value": -0.205},
      {"measurement": "thermal stability score", "setting": "HeLa Kyoto [4]; [5]", "value": 0.0834},
      {"measurement": "thermal stability score", "setting": "HeLa Kyoto [4]; cell cycle stage: mitosis", "value": -0.634}
    ]},
    {"substance": "MDKVCAVFGGSRGIGRAVAQLMARKGYRLAVIARNLEGAKAAAGDLGGDHLAFSCDVAKEHDVQNTFEELEKHLGRVNFLVNAAGINRDGLLVRTKTEDMVSQLHTNLLGSMLTCKAAMRTMIQQQGGSIVNVGSIVGLKGNSGQSVYSASKGGLVGFSRALAKEVARKKIRVNVVAPGFVHTDMTKDLKEEHLKKNIPLGRFGETIEVAHAVVFLLESPYITGHVLVVDGGLQLIL [CBR4]", "values": [
      {"measurement": "melting temperature", "setting": "HeLa Kyoto [1]; cell cycle stage: G1/S", "value": 54, "unit": "°C"},
      {"measurement": "melting temperature", "setting": "HeLa Kyoto [1]; cell cycle stage: mitosis", "value": 55.2, "unit": "°C"},
      {"measurement": "solubility change mitosis (log2)", "setting": "HeLa Kyoto [2]", "value": -0.0343},
      {"measurement": "solubility in G1/S (log2)", "setting": "HeLa Kyoto [3]", "value": 0.0654},
      {"measurement": "thermal stability score", "setting": "HeLa Kyoto [4]; [5]", "value": 1.14},
      {"measurement": "thermal stability score", "setting": "HeLa Kyoto [4]; cell cycle stage: mitosis", "value": -0.318}
    ]},
    {"substance": "MQRLQVVLGHLRGPADSGWMPQAAPCLSGAPQASAADVVVVHGRRTAICRAGRGGFKDTTPDELLSAVMTAVLKDVNLRPEQLGDICVGNVLQPGAGAIMARIAQFLSDIPETVPLSTVNRQCSSGLQAVASIAGGIRNGSYDIGMACGVESMSLADRGNPGNITSRLMEKEKARDCLIPMGITSENVAERFGISREKQDTFALASQQKAARAQSKGCFQAEIVPVTTTVHDDKGTKRSITVTQDEGIRPSTTMEGLAKLKPAFKKDGSTTAGNSSQVSDGAAAILLARRSKAEELGLPILGVLRSYAVVGVPPDIMGIGPAYAIPVALQKAGLTVSDVDIFEINEAFASQAAYCVEKLRLPPEKVNPLGGAVALGHPLGCTGARQVITLLNELKRRGKRAYGVVSMCIGTGMGAAAVFEYPGN [ACAA1]", "values": [
      {"measurement": "melting temperature", "setting": "HeLa Kyoto [1]; cell cycle stage: G1/S", "value": 55.1, "unit": "°C"},
      {"measurement": "melting temperature", "setting": "HeLa Kyoto [1]; cell cycle stage: mitosis", "value": 55.3, "unit": "°C"},
      {"measurement": "solubility change mitosis (log2)", "setting": "HeLa Kyoto [2]", "value": -0.102},
      {"measurement": "solubility in G1/S (log2)", "setting": "HeLa Kyoto [3]", "value": 0.126},
      {"measurement": "thermal stability score", "setting": "HeLa Kyoto [4]; [5]", "value": 0.354},
      {"measurement": "thermal stability score", "setting": "HeLa Kyoto [4]; cell cycle stage: mitosis", "value": -0.509}
    ]},
    {"substance": "MVLLAAAVCTKAGKAIVSRQFVEMTRTRIEGLLAAFPKLMNTGKQHTFVETESVRYVYQPMEKLYMVLITTKNSNILEDLETLRLFSRVIPEYCRALEENEISEHCFDLIFAFDEIVALGYRENVNLAQIRTFTEMDSHEEKVFRAVRETQEREAKAEMRRKAKELQQARRDAERQGKKAPGFGGFGSSAVSGGSTAAMITETIIETDKPKVAPAPARPSGPSKALKLGAKGKEVDNFVDKLKSEGETIMSSSMGKRTSEATKMHAPPINMESVHMKIEEKITLTCGRDGGLQNMELHGMIMLRISDDKYGRIRLHVENEDKKGVQLQTHPNVDKKLFTAESLIGLKNPEKSFPVNSDVGVLKWRLQTTEESFIPLTINCWPSESGNGCDVNIEYELQEDNLELNDVVITIPLPSGVGAPVIGEIDGEYRHDSRRNTLEWCLPVIDAKNKSGSLEFSIAGQPNDFFPVQVSFVSKKNYCNIQVTKVTQVDGNSPVRFSTETTFLVDKYEIL [ARCN1]", "values": [
      {"measurement": "melting temperature", "setting": "HeLa Kyoto [1]; cell cycle stage: G1/S", "value": 51.7, "unit": "°C"},
      {"measurement": "melting temperature", "setting": "HeLa Kyoto [1]; cell cycle stage: mitosis", "value": 51.8, "unit": "°C"},
      {"measurement": "solubility change mitosis (log2)", "setting": "HeLa Kyoto [2]", "value": -0.0987},
      {"measurement": "solubility in G1/S (log2)", "setting": "HeLa Kyoto [3]", "value": -0.104},
      {"measurement": "thermal stability score", "setting": "HeLa Kyoto [4]; [5]", "value": 1.07},
      {"measurement": "thermal stability score", "setting": "HeLa Kyoto [4]; cell cycle stage: mitosis", "value": 0.0434}
    ]},
    {"substance": "MAENPSLENHRIKSFKNKGRDVETMRRHRNEVTVELRKNKRDEHLLKKRNVPQEESLEDSDVDADFKAQNVTLEAILQNATSDNPVVQLSAVQAARKLLSSDRNPPIDDLIKSGILPILVKCLERDDNPSLQFEAAWALTNIASGTSAQTQAVVQSNAVPLFLRLLRSPHQNVCEQAVWALGNIIGDGPQCRDYVISLGVVKPLLSFISPSIPITFLRNVTWVIVNLCRNKDPPPPMETVQEILPALCVLIYHTDINILVDTVWALSYLTDGGNEQIQMVIDSGVVPFLVPLLSHQEVKVQTAALRAVGNIVTGTDEQTQVVLNCDVLSHFPNLLSHPKEKINKEAVWFLSNITAGNQQQVQAVIDAGLIPMIIHQLAKGDFGTQKEAAWAISNLTISGRKDQVEYLVQQNVIPPFCNLLSVKDSQVVQVVLDGLKNILIMAGDEASTIAEIIEECGGLEKIEVLQQHENEDIYKLAFEIIDQYFSGDDIDEDPCLIPEATQGGTYNFDPTANLQTKEFNF [KPNA3]", "values": [
      {"measurement": "melting temperature", "setting": "HeLa Kyoto [1]; cell cycle stage: G1/S", "value": 49, "unit": "°C"},
      {"measurement": "melting temperature", "setting": "HeLa Kyoto [1]; cell cycle stage: mitosis", "value": 50.5, "unit": "°C"},
      {"measurement": "solubility change mitosis (log2)", "setting": "HeLa Kyoto [2]", "value": -0.0814},
      {"measurement": "solubility in G1/S (log2)", "setting": "HeLa Kyoto [3]", "value": 0.128},
      {"measurement": "thermal stability score", "setting": "HeLa Kyoto [4]; [5]", "value": 1.67},
      {"measurement": "thermal stability score", "setting": "HeLa Kyoto [4]; cell cycle stage: mitosis", "value": 4.62}
    ]},
    {"substance": "MAAMRKALPRRLVGLASLRAVSTSSMGTLPKRVKIVEVGPRDGLQNEKNIVSTPVKIKLIDMLSEAGLSVIETTSFVSPKWVPQMGDHTEVLKGIQKFPGINYPVLTPNLKGFEAAVAAGAKEVVIFGAASELFTKKNINCSIEESFQRFDAILKAAQSANISVRGYVSCALGCPYEGKISPAKVAEVTKKFYSMGCYEISLGDTIGVGTPGIMKDMLSAVMQEVPLAALAVHCHDTYGQALANTLMALQMGVSVVDSSVAGLGGCPYAQGASGNLATEDLVYMLEGLGIHTGVNLQKLLEAGNFICQALNRKTSSKVAQATCKL [HMGCL]", "values": [
      {"measurement": "melting temperature", "setting": "HeLa Kyoto [1]; cell cycle stage: G1/S", "value": 54.1, "unit": "°C"},
      {"measurement": "melting temperature", "setting": "HeLa Kyoto [1]; cell cycle stage: mitosis", "value": 53.9, "unit": "°C"},
      {"measurement": "solubility change mitosis (log2)", "setting": "HeLa Kyoto [2]", "value": -0.047},
      {"measurement": "solubility in G1/S (log2)", "setting": "HeLa Kyoto [3]", "value": 0.536},
      {"measurement": "thermal stability score", "setting": "HeLa Kyoto [4]; [5]", "value": 0.275},
      {"measurement": "thermal stability score", "setting": "HeLa Kyoto [4]; cell cycle stage: mitosis", "value": 0.372}
    ]}
  ]
}
